Source: PMC10457384 (2023)

Experiments:
Max 37-83 [1] = target: T1, Max 37-83 (Homo sapiens, UniProt P61244); assay: single-molecule SiNW-FET electrical recording (pH 6.5)
T1 chain: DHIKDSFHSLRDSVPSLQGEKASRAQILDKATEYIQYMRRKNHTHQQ

Max 37-83 [2] = target: T1, Max 37-83; assay: single-molecule SiNW-FET electrical recording (pH 7.4, 37 °C)

B1: c-Myc 370-414 (peptide)
chain: KRRTHNVLERQRRNELKRSFFALRDQIPELENNEKAPKVVILKKA
modifications: C-terminal cysteine added to c-Myc, immobilized on nanowire
Kd (Max 37-83 [1]): 67 nM
Kd (Max 37-83 [2]): 205 nM
